The values below come from paper PMC5800367.

In experiment [1] the target is Recombinant human C5a (Homo sapiens) (UniProt P01031). In words: kinetic exclusion assay.
Experiment [2] concerns the target Recombinant Cynomolgus C5adesArg (Macaca fascicularis). In words: SPR.
Experiment [3] concerns the target Recombinant human C5a (Homo sapiens) (UniProt P01031). In words: SPR.
The target of experiment [4] is Serum purified Cynomolgus C5a (Macaca fascicularis). In words: SPR.
Experiment [5] deals with Serum purified human C5a (Homo sapiens) (UniProt P01031). In words: SPR.
In experiment [6] the target is Recombinant human C5a (Homo sapiens) (UniProt P01031). In words: DELFIA biochemical competition assay.
Experiment [7] addresses Serum purified human C5 (Homo sapiens) (UniProt P01031). Briefly: DELFIA biochemical competition assay.

With MEDI7814 (antibody), the Kd was found to be 4 pM in experiment [1], 10 pM in experiment [2], 14 pM in experiment [3] and 8 pM in experiment [5]. The koff in experiment [2] was determined as 0.000144 s⁻¹; in experiment [3] it was 0.000251 s⁻¹; in experiment [4], 0.000154 s⁻¹; in experiment [5] it was 0.000165 s⁻¹. The kon was found to be 1.51e+07 M⁻¹ s⁻¹ in experiment [2], 1.74e+07 M⁻¹ s⁻¹ in experiment [3], 8.08e+06 M⁻¹ s⁻¹ in experiment [4] and 2.18e+07 M⁻¹ s⁻¹ in experiment [5]. Moreover, the IC50 was determined as 300 pM in experiment [6] and 600 pM in experiment [7].
